Five molecules from patent US12383631 (BRIGHT PEAK THERAPEUTICS, dated 2025) can be followed below.

One may read the Kd as the concentration at which binding is half-saturated. One may read the EC50 (read off the curve) as the concentration giving half of the maximal effect. For orientation: koff means the first-order rate constant of dissociation. By kon is commonly meant the rate constant with which the complex forms.

The labels stand for the following.
B2: recombinant Human Fc gamma RI/CD64 Protein (R&D systems, 1257-FC-050) (receptor)
chain: QVDTTKAVITLQPPWVSVFQEETVTLHCEVLHLPGSSSTQWFLNGTATQTSTPSYRITSASVNDSGEYRCQRGLSGRSDPIQLEIHRGWLLLQVSSRVFTEGEPLALRCHAWKDKLVYNVLYYRNGKAFKFFHWNSNLTILKTNISHNGTYHCSGMGKHRYTSAGISVTVKELFPAPVLNASVTSPLLEGNLVTLSCETKLLLQRPGLQLYFSFYMGSKTLRGRNTSSEYQILTARREDSGLYWCEAATEDGNVLKRSPELELQVLGLQLPTP
notes: detected with an anti-His antibody; tag not described; also called FcγRI/CD64; human Fc gamma receptor I

Test [1] addresses T1, Composition B (Atezolizumab/Tecentriq conjugated to IL-18 polypeptide of SEQ ID NO: 30) (human, UniProt P0DOX5 2-449 = IgG part; P0DOX7 1-214; Q14116 37-193, chemical linker to the antibody; site not stated for this composition; chemical linker to IL-18; site not stated for this composition).
T1 construct: immunocytokine
Kind of test: ELISA; immunocytokine coated, receptor titrated, anti-His-HRP. The protocol:
(§1) The interaction of the unmodified and of conjugated antibodies with human Fc gamma receptors I (FcγRI/CD64), with human Fc gamma receptors IIa (FcγRIIa/CD32a), with inhibitory human Fc gamma receptors IIb (FcγRIIb/CD32b), and with human Fc gamma receptors III FcγRIIIa/CD16 were measured by ELISA.
Briefly, Corning high-binding half-area plates (Fisher Scientific, Reinach, Switzerland) were coated overnight at 4° C. with 25 μl of unmodified and of conjugated anti-PD1 antibodies at 2.5 μg/ml in PBS. Plates were then washed four times with 100 μl of PBS-0.02% Tween20. Plates surfaces were blocked with 25 μl of PBS-0.02% Tween20-1% BSA at 37° C. during 1 h. Plates were then washed four times with 100 μl of PBS-0.02% Tween20. […] ELISA signal was then measured at 450 nm on an EnSpire plate reader from Perkin Elmer (Schwerzenbach, Switzerland). Binding Affinity of Reference Antibodies and Immunocytokines with Human Fc Gamma Receptors as Measured by ELISA
Background: An ELISA detects its analyte on a solid surface through an enzyme-linked reagent.

Test [2] addresses B2. Kind of test: ELISA; antibody coated, receptor titrated, anti-His-HRP. The protocol:
as §1
(§2) Briefly, Corning high-binding half-area plates (Fisher Scientific, Reinach, Switzerland) were coated overnight at 4° C. with 25 μl of unmodified and of conjugated anti-PD1 antibodies at 2.5 μg/ml in PBS. Plates were then washed four times with 100 μl of PBS-0.02% Tween20. Plates surfaces were blocked with 25 μl of PBS-0.02% Tween20-1% BSA at 37° C. during 1 h. Plates were then washed four times with 100 μl of PBS-0.02% Tween20. Then twenty-five microliters of either recombinant Human Fc gamma RI/CD64 Protein (R&D systems, 1257-FC-050, CF), recombinant Human Fc gamma RIIA/CD32a (H167) Protein (R&D systems, 9595-CD-050, CF), recombinant Human Fc gamma RIIB/CD32b Avi-tag Protein (R&D systems, AVI1875-050, CF), or recombinant Human Fc gamma RIIIA/CD16a Protein (R&D systems, 4325-FC-050; CF) were added in five-fold serial dilutions ranging from 1000 nM to 0.001 nM into PBS-0.02% Tween20-0.1% BSA and incubated at 37° C. during 2 h. Plates were then washed four times with 100 μl of PBS-0.02% Tween20. Twenty-five microliters of a 1/500 HRP-anti-His antibody in PBS—0.02% Tween20-0.1% BSA (R&D systems, anti-HIS—HRP Ab, #MAB050H) were added to each well and plates were incubated at Room Temperature during 1 h. Plates were then washed four times with 100 μl of PBS-0.02% Tween20. Fifty microliters of TMB substrate reagent (#CL07, Merck, Buchs, Switzerland) were added to each well and incubated at 37° C. during 5 min. After 5 min at 37° C., Horseradish peroxidase reaction was stopped by adding 50 μl/well of 0.5M H2SO4 stop solution. ELISA signal was then measured at 450 nm on an EnSpire plate reader from Perkin Elmer (Schwerzenbach, Switzerland). Binding Affinity of Reference Antibodies and Immunocytokines with Human Fc Gamma Receptors as Measured by ELISA

The target in test [3] is T2, recombinant Human Fc gamma RIIIA/CD16a Protein (R&D systems, 4325-FC-050) (human, UniProt P08637 17-208).
T2 construct: detected with an anti-His antibody; tag and allotype not described; also called FcγRIIIa (CD16)
Described as above. The protocol:
as §1, §2

Test [4] deals with T3, recombinant biotinylated human FcRn (human, UniProt P55899 24-297; P61769 21-119, limits assumed, biotinylated).
T3 construct: also called human neonatal Fc receptor (FcRn)
In words: AlphaLISA competition at pH 6; competitor: human IgG on acceptor beads. The protocol:
The interaction of the unmodified and of conjugated anti-PD1 antibodies with the human neonatal Fc receptor (FcRn) at pH 6 was measured using the AlphaLISA® Human FcRn Binding Kit (AL3095C) from Perkin Elmer (Schwerzenbach, Switzerland).
After 90 min at 23° C. in the dark, AlphaLISA® signal was measured on an EnSpire plate reader (Excitation at 680 nm, Emission at 615 nm) from Perkin Elmer (Schwerzenbach, Switzerland). Binding Affinity of Reference Antibodies and Immunocytokines with the Human Neonatal Fc Receptor as Measured by AlphaLISA

Test [5] has as its target T4, Biotinylated Recombinant Human PD-1/CD279-Fc Chimera, carrier-free (Biolegend #789406) (human, UniProt Q15116 25-167, biotinylated).
T4 construct: bought; also called recombinant biotinylated human PD-1; Fc part of the bought chimera not given
Kind of test: ELISA: antibody coated on the plate (5 ug/ml), biotinylated human PD-1/CD279-Fc titrated in solution (x-axis), streptavidin-HRP/TMB, 450 nm. The protocol: (§3) The interaction of the unmodified antibodies and corresponding IL-18 immunocytokines with relevant immune cell associated antigen are measured by ELISA assay. For these studies, Corning high-binding half-area plates (Fisher Scientific, Reinach, Switzerland) are coated overnight at 4° C. with 25 μl of unmodified antibodies corresponding IL-18 immunocytokines at 5 μg/ml in PBS. Plates are then washed four times with 100 μl of PBS-0.02% Tween20. Plate surfaces are blocked with 25 μl of PBS-0.02% Tween20-1% BSA at 37° C. during 1 h. Plates are then washed four times with 100 μl of PBS-0.02% Tween20. […] Plates are then washed four times with 100 μl of PBS-0.02% Tween20. Twenty-five microliters of Streptavidin-Horseradish peroxidase (#RABHRP3, Merck, Buchs, Switzerland) diluted at 1:500 into PBS-0.02% Tween20-0.1% BSA are added to each well and incubated at Room Temperature during 30 min. Plates are then washed four times with 100 μl of PBS-0.02% Tween20. Fifty microliters of TMB substrate reagent (#CL07, Merck, Buchs, Switzerland) are added to each well and incubated at 37° C. during 5 min. After 5 min at 37° C., Horseradish peroxidase reaction is stopped by adding 50 μl/well of 0.5M H_2SO_4 stop solution. ELISA signal is then measured at 450 nm on an ENSPTRE® plate reader from Perkin Elmer (Schwerzenbach, Switzerland).

Test [6] deals with T4, Biotinylated Recombinant Human …. In words: ELISA; antibody coated, biotinylated PD-1-Fc titrated. The protocol:
as §3

Test [7] has as its target T5, His-tagged human PD1 (R&D #8986-PD) (human, UniProt Q15116 25-167).
T5 construct: bought; not shown: His tag
In words: BLI (Octet), antibody on AHC sensor, His-tagged PD-1 as analyte. An excerpt:
(§4) Based on Bio-Layer Interferometry (BLI), Octet® BLI systems enable real-time, label-free analysis for the determination of kinetics and affinity of a ligands to its receptor. Here anti-human IgG FC Capture (AHC) sensors are loaded with the test items (ICs). Sensors are first dipped into a kinetic buffer for baseline measurement, then into an analyte solution, here human PD1, to allow association and again into a buffer solution where the analyte is allowed to come off the ligand (dissociation). Several concentrations of analyte are run in parallel and enable the calculation of affinity parameters: Ka, Kd, KD.
(§5) Typically, first, the sensors are regenerated by 3 cycles of dipping into 10 mM glycine solution at pH=2 for 20 seconds, followed by 20 second kinetics buffer and a final 60 seconds in kinetics buffer to establish the initial signal (baseline). Second, the loading column will contain the ligand, here the unmodified PD-1 antibodies and of IL-18 polypeptide conjugated PD-1 antibody, at a fixed concentration determined in the loading scout experiment (20 ug/mL). Then another wash/baseline step allows non immobilized proteins to be washed away. The association column will contain the 2-fold dilution series of the analyte (His-tagged human PD1, R&D #8986-PD) including a no analyte control. […] The dissociation designates the sensors to return to previous baseline column with kinetics buffer. After acquisition, the data is analyzed with Data Analysis Studio software (Sartorius). Data sets are first preprocessed by subtracting references samples and aligning curves on the baseline step. Group fitting is then applied to the data series and kinetics parameters are calculated.
For orientation: BLI is a label-free optical method that tracks binding on a fibre tip over time.

For test [8], the target named is T4, Biotinylated Recombinant Human …. Kind of test: ELISA: immunocytokine coated on the plate (5 ug/ml), biotinylated human PD-1/CD279-Fc titrated in solution (x-axis), streptavidin-HRP/TMB, 450 nm. The protocol:
as §3

The target is the same in test [9]. In words: ELISA; immunocytokine coated, biotinylated PD-1-Fc titrated. The protocol:
as §3

Test [10] has as its target T5, His-tagged human PD1 (R&D #8986-PD). In words: BLI (Octet), immunocytokine on AHC sensor, His-tagged PD-1 as analyte.
From the text: as §4, §5

B1: recombinant Human Fc gamma RIIA/CD32a (H167) Protein (R&D systems, 9595-CD-050) (receptor)
chain: AAPPKAVLKLEPPWINVLQEDSVTLTCQGARSPESDSIQWFHNGNLIPTHTQPSYRFKANNNDSGEYTCQTGQTSLSDPVHLTVLSEWLVLQTPHLEFQEGETIMLRCHSWKDKPLVKVTFFQNGKSQKFSHLDPTFSIPQANHSHSGDYHCTGNIGYTLFSSKPVTITVQVPSMGSSSPMGI
notes: detected with an anti-His antibody; tag not described; also called FcγRIIa (CD32a)
Turning to B1, the affinity in test [1], expressed as Kd, was 1740 nM.

In test [1], B2 yielded a Kd of 10.8 nM.

B3: Pembrolizumab/Keytruda (antibody, human IgG4 S228P, kappa)
heavy: not shown
light: EIVLTQSPATLSLSPGERATLSCRASKGVSTSGYSYLHWYQQKPGQAPRLLIYLASYLESGVPARFSGSGSGTDFTLTISSLEPEDFAVYYCQHSRDLPLTFGGGTKVEIKRTVAAPSVFIFPPSDEQLKSGTASVVCLLNNFYPREAKVQWKVDNALQSGNSQESVTEQDSKDSTYSLSSTLTLSKADYEKHKVYACEVTHQGLSSPVTKSFNRGEC
notes: also called Lambrolizumab; MK-3475
Consider B3, for which the results for the dissociation constant Kd in test [2], in [3] and in test [4] were 0.593 nM, 1660 nM and 7.45 nM, respectively.

B4: LZM-009 (antibody, V domains shown)
VH: QVQLVQSGAEVKKPGASVKVSCKASGYTFTSYYMYWVRQAPGQGLEWMGGVNPSNGGTNFNEKFKSRVTITADKSTSTAYMELSSLRSEDTAVYYCARRDYRYDMGFDYWGQGTTVTVSS
VL: EIVLTQSPATLSLSPGERATISCRASKGVSTSGYSYLHWYQQKPGQAPRLLIYLASYLESGVPARFSGSGSGTDFTLTISSLEPEDFATYYCQHSRELPLTFGTGTKVEIK
notes: also called LZM-009 anti-PD-1 antibody
With B4, in test [5], the “EC50 (read off the curve)” value was about 0.06 nM. Besides, in test [6], the Kd came to 0.0407 nM. Also, in test [7], the Kd was determined as 23.5 nM, the off-rate constant (koff) came out at 0.0077 s⁻¹ and the kon worked out at 342000 M⁻¹ s⁻¹.

B5: Composition A (LZM-009 conjugated to IL-18 polypeptide of SEQ ID NO: 30) (other)
VH: QVQLVQSGAEVKKPGASVKVSCKASGYTFTSYYMYWVRQAPGQGLEWMGGVNPSNGGTNFNEKFKSRVTITADKSTSTAYMELSSLRSEDTAVYYCARRDYRYDMGFDYWGQGTTVTVSS
VL: EIVLTQSPATLSLSPGERATISCRASKGVSTSGYSYLHWYQQKPGQAPRLLIYLASYLESGVPARFSGSGSGTDFTLTISSLEPEDFATYYCQHSRELPLTFGTGTKVEIK
chain: YFGKLKSKLSIIRNLNDQVLFIDQGNRPLFEDMTDSDARDNAPRTIFIISMYADSQPRGMAVAISVKCEKISTLSAENKIISFKEMNPPDNIKDTKSDIIFFQRSVPGHDNKMQFESSSYEGYFLAAEKERDLFKLILKKEDELGDRSIMFTVQNED
Consider B5, for which the concentration giving a half-maximal response (EC50 (read off the curve)) in test [8] is about 0.07 nM. Besides, in test [9], the dissociation constant Kd is 0.0467 nM. For the same molecule, in test [10], the Kd was found to be 11.5 nM, the dissociation rate constant (koff) worked out at 0.00479 s⁻¹ and the kon amounted to 454000 M⁻¹ s⁻¹.
